Measurements: US20260374871 (published 2026)
Values belong to the binder of their own block, whether it stands above or below them.

Target: human CTLA-4 (human, UniProt P16410)
Assay: BLI

human CTLA-4, sequence (P16410 36-161): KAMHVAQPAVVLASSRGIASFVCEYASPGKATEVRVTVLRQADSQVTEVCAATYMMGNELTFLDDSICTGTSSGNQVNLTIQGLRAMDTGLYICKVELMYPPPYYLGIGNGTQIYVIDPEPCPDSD

Kd: 0.155 nM
B1: GBD008-hS005-5 (designed binder)
chain: EVQLVESGGGLVQPGGSLRLSCAASGRTASSNAMAWFRQAPGKEREFVSAISATGGLTAYADSVKGRFTISRDNSKNTLYLQMNSLRAEDTAVYIGAVGRERWYLRHTENEYDYWGQGTLVTVSS

Kd: 0.269 nM
B2: GBD008-hS005 (designed binder)
chain: QVQLVESGGGLVEAGGSLRLSCATSGRTASSNAMAWFRQAPGKEREFVAAISATGGLTAYADSVKGRFTISRDNSKNAVYLQMNTLKPEDTAVYIGAVGRERWYLRHTENEYDYWGRGAQVTVSS
